Results as given in the supplement of paper PMC9170038.

What was measured:
[1] = test system: MS2 coat protein; assay: apparent KD of MS2 coat protein, switch OFF state (with FMN for OFF switches, without FMN for ON switches); designed switch direction (-1 OFF switch, 1 ON switch): -1; higher = weaker reporter binding; conditions: FMN input: 0 or 200 uM; Eterna round: R93 (includes R88 designs)
Procedure, shortened: (§1)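 Apparent KD was obtained for each design as the median of normalised binding-curve fits over its clusters. RNA switches transcribed on-chip from Illumina sequencing clusters were titrated with SNAP-549-labelled MS2 coat protein (twofold steps, 0.7 or 1.5 nM to 3 µM) in 100 mM Tris-HCl pH 7.5, 80 mM KCl, 4 mM MgCl2, without or with constant ligand.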

[2] = test system: MS2 coat protein; assay: apparent KD of MS2 coat protein, switch ON state; designed switch direction (-1 OFF switch, 1 ON switch): -1; higher = weaker reporter binding; conditions: FMN input: 0 or 200 uM; Eterna round: R93 (includes R88 designs)
Procedure, shortened: as §1

Row | Sequence | apparent KD of MS2 coat protein [1] [nM] | apparent KD of MS2 coat protein [2] [nM]
1 | AAUAAUGGAGGAUAUACUAAAGAAAUGAAAAGAAAUAAAGAACAUGAGGAUCACCCAUGUAGAAGGCCAAAUAA [Khamure] | 27.8 | 26
2 | AAUGCGGCAGGAUAUACAUGAGGAUCACCCAUGUAGAUCAGAUAUAUGGGAAAACCAUGUAGAAGGGCCGCAAA [Ex 3May 60] | 29.6 | 109
3 | ACAGUUACAGGAUAUACAAAGGUAACUUCAAAGAAAACUCUACAUGAGGAUCACCCAUGUAGAAGGGUAACUGA [Ex2 Design 200 (probably): Random 17] | 18.2 | 14.3
4 | ACAGUUACAGGAUAUACAAGGAAAAAUAAAAAUAAAAUUCAACAUGAGGAUCACCCAUGUAGAAGGGUAACUGA [Ex2 Design 200: Random 15] | 32.1 | 30
5 | ACAUGUACAGGAUAUACGUGGAAAAAAAAAAAAAAAAAACUACAUGAGGAUCACCCAUGUAGAAGGGUACAUGA [Ex2 Design 194: Random 12C] | 37 | 26.5
6 | ACCUAACAUGAGGAUCACCCAUGUGAGGAUAUAGACGUGAAUUAAACACGUAACAAAACUAGAAGGCACUGGGC [Erbeardi] | 16.8 | 26.1
7 | ACCUGACAUGAGGAUCACCCAUGUCAGGAUAUGCAUCUUAGGAAAAAAAAACUAAGAUGCAGAAGGGACAUGGG [Design 2: Super Stable 2] | 27.5 | 25.4
8 | ACUAACAGAGGAUAUACUAACAAACCUCAAACAUACAUCAAACAUGAGGAUCACCCAUGUAGAAGGCUGAAACU [JR_Exc002_Sub005] | 27 | 26.7
9 | ACUUAUGAAGGAUAUACUAGCAACAUGCACUCAACACACACACAUGAGGAUCACCCAUGUAGAAGGUCAAACAU [JR_Exc002_Sub1206] | 19.7 | 23.2
10 | AGAAAACAUGAGGAUCACCCAUGUAAGGAUAUGCUGAAAAACACGGAAAAAACGUGCAGCAGAAGGUACAAAGA [Mat - Exclusion 1 - Eli mod - D95] | 40.8 | 22.4
11 | AGAAAACAUGAGGAUCACCCAUGUCAGGAUAUCCUGCGGUGAUACACACCGCGUUGUCGGAGAAGGGACAGGGA [Tiesesmari] | 81.9 | 65.6
12 | AGAAAACAUGAGGAUCACCCAUGUGAGGAUAUGUAAAAGAAAAGAAAAGAAAGAAGAAACAGAAGGCACAAGAA [Nynetjer] | 45.6 | 24.9
13 | AGAAAGGCAGGAUAUACAUGAGGAUCACCCAUGUUAAGAAAGACGGAAACGUCAAGAAGUAGAAGGGCCAAGAA [Shaken, but not stirred] | 19.7 | 21.9
14 | AGAAAGGUAGGAUAUACGAAAAAAAAGGGUAGAAAAAAAACACAUGAGGAUCACCCAUGUAGAAGGACCAAAGA [Mat - Exclusion 2 - Tesla mod - D31] | 47.5 | 35.2
15 | AGAAAGUCAGGAUAUACGAAAGUGCGAAAGCACAAAAGGGAACAUGAGGAUCACCCAUGUAGAAGGGACAAGAA [Diamond 77] | 170 | 91.4
16 | AGAAAGUCAGGAUAUCAGAAUAAGUCGAAAACGACUAGUAAUGAGAAGGGACAUGAGGAUCACCCAUGUAAGAA [Ex4 sub 3] | 37.1 | 49
17 | AGAAAGUCAGGAUAUGUACAAAAUAAAAUAAAAAUAAAAGUACAGAAGGGACAUGAGGAUCACCCAUGUAAAGA [Mat - Exclusion 4 - Mayanna - D121] | 52.4 | 50.2
18 | AGAAAGUCAGGAUAUGUGGAAAAAAUAAAAAAAAUAAAAACACAGAAGGGACAUGAGGAUCACCCAUGUUAAGA [Mat - Exclusion 4 - Mayanna - D139] | 30.3 | 53.4
19 | AGAAUACAUGAGGAUCACCCAUGUGAGGAUAUAUGAAGAAAAAGAAAAGAAAAGAAACAUAGAAGGCACAAAAG [EX 1 May 16] | 86.7 | 16.1
